Reference: patent US20080160035A1 (Regeneron, published 2008)
Changes are numbered by the printed parent chain.

B1: VAB 10C1-5 (antibody, V domains shown)
VH: QVQLVETGGDLVRPGGSLRLSCTASGFTLSDYYMSWIRQAPGKGLEWVSYIRRSGNTIYYADSVKGRFTISRDNAKNSLYLQMNSLRAEDTAVYYCARGGDWADVWGQGTTVTVSS
VL: DIQMTQSPSSLSASVGDRVTITCRASQGISIYLAWFQQKPGKAPKSLIYAASSLQRGVPSKFSGSGSGTDFTLTISSLQPEDFATYYCQQYNSYPYTFGQGTKLEIK
notes: Apparently tested with mouse constant region (anti-mouse IgG capture/detection)
B2: VX 3F7-6 (antibody, V domains shown)
VH: EVQLVESGGGLVQPGGSLRLSCAASGFTFSSFWMTWVRQAPGKGLEWVANIKQDGSEKYYVDSVKGRFTISRDNAKNSLYLQMNSLRAEDTAVYYCARDPGRTMVRGGIRYYYGMDVWGQGTTVTVSS
VL: DIQMTQSPSSVSASVGDRVTISCRASQGVSSWLAWYQQKPGNAPKLLISAASSIQSGVPSRFSGSGSGTDFTLTISSLQPEDFATYYCQQANSFPLTFGGGTKVEIK
notes: 395/397; 399/401 without saying which was assayed; Apparently tested with mouse constant region (anti-mouse IgG capture/detection)
B3: VAK8G11-13 (antibody, V domains shown)
VH: QVRLVESGGGVVQPGGSLRLSCAASGFIFRSYGMHWVRQAPGRGLEWVAVISYDGSKTFYVDSVKVRFTISRDNSKNTLYLEMNSLRVDDTAVYFCVKEGRSGSWFDPWGQGTLVAVSS
VL: DIHMTQSPSSLSASVGDRVTITCRASQAINNFLAWFQQKPGKTPKSLIFATSSLQSGVPSRFSGSGSGTDFTLTISSLQPEDFATYYCQQYNSHPWTFGQGTKVEIK
notes: as for B1
B4: VAK5H4-4 (antibody, V domains shown)
VH: B3 VH with A23V, I28T
VL: B3 VL with H3Q, K45N, G64A, S65G
notes: as for B1
B5: VAK7G8-5 (antibody, V domains shown)
VH: B3 VH with A23T
VL: B3 VL with K107R
notes: as for B1
B6: VAB 15C8-17 (antibody, V domains shown)
VH: QVQLVESGGGLVQPGGSLRLSCAVSGFTISDHYMSWIRQAPGKGLEWISYISSSGSKIYYADSVKGRFTISRDNAKNSLFLQMNSLRAEDTAVYYCARTRQLVGDYWGQGTLVTVSS
VL: DIQLTQSPSFLSASVGDRVTITCWASQGISSYLAWYQQKPGKAPKLLIFAASTLQSGVPSRFSGSGSGTEFTLTISSLQPEDFATYYCQQLNSYPLTFGGGTKVEIR
notes: as for B1
B7: VAB 10G8-19 (antibody, V domains shown)
VH: QVQLVQSGAEVKKPGASVKVSCKASRYTFTSYDINWVRQATGQGLEWMGWMNPNSGNTGYAQKFQGRVTMTRNTSTSTAYMELSSLRSEDTAVYYCARVRRFFDYWGQGTLVTVSS
VL: B6 VL with S30I, F49Y, Q55H, Q89H, N92K, L96I, G100Q, K103R, V104L, R107K
notes: as for B1

Each binder was assayed against T1, mouse IL-4R (mouse, UniProt P16382 26-233, limits assumed) (assay: binding affinity test of Example 2 (method not restated)).
T1 sequence (looked up): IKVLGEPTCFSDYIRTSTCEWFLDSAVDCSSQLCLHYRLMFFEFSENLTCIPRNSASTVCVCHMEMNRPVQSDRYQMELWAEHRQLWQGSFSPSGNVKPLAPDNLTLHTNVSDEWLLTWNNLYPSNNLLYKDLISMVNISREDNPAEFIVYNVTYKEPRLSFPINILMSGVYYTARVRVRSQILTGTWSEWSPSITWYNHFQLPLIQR

Binder | binding result
B1 | no binding
B2 | no binding
B3 | no binding
B4 | no binding
B5 | no binding
B6 | no binding
B7 | no binding

What follows are binders tested against T2, hIL-4R on cells (STAT6-transfected HEK293, TF1, TF1/A12) (human, UniProt P24394 26-825) (assay: cell-based or functional assay).
T2 sequence (looked up): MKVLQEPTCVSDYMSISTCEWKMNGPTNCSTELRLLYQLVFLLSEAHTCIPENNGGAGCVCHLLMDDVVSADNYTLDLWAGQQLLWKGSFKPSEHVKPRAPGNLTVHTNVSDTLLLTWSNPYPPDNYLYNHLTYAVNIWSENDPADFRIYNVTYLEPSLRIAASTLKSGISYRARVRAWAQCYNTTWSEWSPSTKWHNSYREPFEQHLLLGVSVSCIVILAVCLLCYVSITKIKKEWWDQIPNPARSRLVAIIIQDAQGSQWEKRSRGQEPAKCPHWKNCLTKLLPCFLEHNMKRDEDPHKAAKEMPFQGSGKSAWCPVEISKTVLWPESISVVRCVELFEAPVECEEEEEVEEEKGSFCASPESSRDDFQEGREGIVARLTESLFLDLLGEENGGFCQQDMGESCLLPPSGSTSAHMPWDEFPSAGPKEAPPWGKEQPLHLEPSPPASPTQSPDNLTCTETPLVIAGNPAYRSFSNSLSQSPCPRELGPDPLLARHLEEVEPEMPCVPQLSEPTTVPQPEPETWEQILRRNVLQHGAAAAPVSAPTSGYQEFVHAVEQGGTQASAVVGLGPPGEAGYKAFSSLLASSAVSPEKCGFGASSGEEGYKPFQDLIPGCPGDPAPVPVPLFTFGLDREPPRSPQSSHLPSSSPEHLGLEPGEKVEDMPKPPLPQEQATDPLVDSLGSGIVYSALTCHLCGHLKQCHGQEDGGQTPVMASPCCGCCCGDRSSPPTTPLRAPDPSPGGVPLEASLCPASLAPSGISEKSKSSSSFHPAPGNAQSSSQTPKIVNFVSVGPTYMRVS

Binder | STAT6 Bioassay IC50 (HEK293 STAT6 luciferase, 40 pM hIL-13) | TF1 Bioassay IC50 (proliferation, 150 pM hIL-13) [nM]
B1 | 1 nM | 
B2 | > 10 nM | 
B3 | 60 pM | 0.42
B4 | 84 pM | 0.24
B5 | 40 pM | 0.36
B6 | 0.2 nM | 2.6
B7 | 0.97 nM | 

Each binder was assayed against T3, dimeric hIL-4R-hFc (human, UniProt P24394 26-232) (assay: SPR (BIAcore 2000); antibody captured, dimeric hIL-4R-hFc injected).
T3 construct: also called hIL-4R-Fc; not shown: human Fc (hFc)
T3 sequence: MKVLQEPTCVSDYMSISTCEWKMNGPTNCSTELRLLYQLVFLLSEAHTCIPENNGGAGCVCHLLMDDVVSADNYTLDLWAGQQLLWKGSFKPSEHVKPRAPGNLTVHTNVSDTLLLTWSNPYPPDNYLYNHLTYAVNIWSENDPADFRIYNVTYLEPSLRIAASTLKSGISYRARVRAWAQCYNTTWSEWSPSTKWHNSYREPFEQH
Protocol: (§1) Binding affinity (KD) of selected antibodies with respect to hIL-4R was determined using a real-time biosensor surface plasmon resonance assay (BIAcore™ 2000). Briefly, antibody was captured on a goat anti-mouse (GAM) IgG polyclonal antibody surface created through direct chemical coupling of the GAM IgG to a BIAcore™ chip to form a captured antibody surface. […] Binding of antigen to antibody and dissociation of the bound complex, were monitored in real time. Equilibrium dissociation constants (KD) and dissociation rate constants were ascertained by performing kinetic analysis using BIA evaluation software. BIA evaluation software was also used to calculate the half-life of antigen/antibody complex dissociation (T_{1/2}). […] The binding affinity of anti-hIL-4R antibodies to either mouse or monkey (Macaca fascicularis) IL-4R was also tested.

Binder | Kd [nM] | T1/2 dimeric [h]
B1 | 0.051 | 6.7
B2 | 0.654 | 2.7
B3 | 0.002 | 63
B4 | 0.004 | 30
B5 | 0.009 | 25
B6 | 0.045 | 3.6
B7 | 0.052 | 2

These binders were tested against T4, monomeric hIL-4R (R&D Systems) (human, UniProt P24394 26-231) (assay: SPR (BIAcore 2000); antibody captured, monomeric hIL-4R injected).
T4 construct: Bought (R&D Systems); also called hIL-4R monomer
T4 sequence: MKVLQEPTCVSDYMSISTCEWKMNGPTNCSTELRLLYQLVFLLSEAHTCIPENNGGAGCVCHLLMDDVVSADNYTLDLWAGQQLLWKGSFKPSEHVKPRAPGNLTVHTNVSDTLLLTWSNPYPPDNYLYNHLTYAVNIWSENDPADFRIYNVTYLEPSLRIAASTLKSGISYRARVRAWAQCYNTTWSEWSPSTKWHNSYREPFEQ
Protocol: as §1

Binder | Kd [nM] | T1/2 monomeric [min]
B1 | 4.47 | 6
B2 | 3.91 | 16
B3 | 0.03 | 840
B4 | 0.02 | 960
B5 | 0.06 | 480
B6 | 0.82 | 15
B7 | 11.4 | 2

Biological target: T2, hIL-4R on cells (STAT6-transfected …)
Assay: cell-based or functional assay
Remark: another data set of the same source

Binder | STAT6 Bioassay IC50 (HEK293 STAT6 luciferase, 10 pM hIL-4) | TF1/A12 Bioassay IC50 (proliferation, 20 pM hIL-4) [nM] | TF1 Bioassay IC50 (proliferation, 50 pM hIL-4) [nM]
B1 | 1.9 nM | 22.8 | 
B2 | > 10 nM | > 50 | 
B3 | 80 pM |  | 0.16
B4 | 0.132 nM | 0.182 | 0.15
B5 | 60 pM |  | 0.13
B6 | 0.32 nM | 4.7 | 0.44
B7 | 1.8 nM | 12.8 | 

These binders were tested against T3, dimeric hIL-4R-hFc (assay: SPR; reduction of hIL-4 (50 nM) binding to captured hIL-4R-hFc after antibody; competitor hIL-4).
Description: Purified hIL-4R-hFc molecules were captured by goat anti-human IgG polyclonal antibody immobilized on CM-5 to a density of 260 RU, to prepare a receptor-coated surface.

Binder | % Inhibition (BIAcore) [%]
B1 | 93
B2 | 86
B3 | 95
B4 | 96
B5 | 95
B6 | 97
B7 | 85

Each binder was assayed against T3, dimeric hIL-4R-hFc (assay: ELISA; antibody titrated against 25 pM hIL-4R-Fc, free receptor caught on hIL-4 plate).
Protocol: Concentration of free hIL-4R-Fc (no antibody bound) was determined using a hIL-4R-specific sandwich ELISA. […] After a one-hour incubation at room temperature, the detection plate was washed and plate-bound hIL-4R-hFc was detected using HRP conjugated goat anti-hFc polyclonal antibodies and developed using colorimetric substrates such as BD OptEIA™ (BD Biosciences Pharmingen, San Diego, Calif.). After the reaction was stopped with 1 M phosphoric or sulfuric acid, absorbances at 450 nm were recorded and the data were analyzed using GraphPad™ Prism software.

Binder | IC50 [nM]
B1 | 0.034
B2 | 0.274
B3 | 0.026
B4 | 0.033
B5 | 0.027
B6 | 0.029
B7 | 0.018
